Experimental data: paper PMC4190666

Molecular target: TAB1 (full length, 60-kDa isoform) (human (endogenous in primary CD4+ T cells)) (UniProt Q15750)
Assay: co-IP

Chain of UniProt Q15750 (Q15750 whole entry, canonical isoform): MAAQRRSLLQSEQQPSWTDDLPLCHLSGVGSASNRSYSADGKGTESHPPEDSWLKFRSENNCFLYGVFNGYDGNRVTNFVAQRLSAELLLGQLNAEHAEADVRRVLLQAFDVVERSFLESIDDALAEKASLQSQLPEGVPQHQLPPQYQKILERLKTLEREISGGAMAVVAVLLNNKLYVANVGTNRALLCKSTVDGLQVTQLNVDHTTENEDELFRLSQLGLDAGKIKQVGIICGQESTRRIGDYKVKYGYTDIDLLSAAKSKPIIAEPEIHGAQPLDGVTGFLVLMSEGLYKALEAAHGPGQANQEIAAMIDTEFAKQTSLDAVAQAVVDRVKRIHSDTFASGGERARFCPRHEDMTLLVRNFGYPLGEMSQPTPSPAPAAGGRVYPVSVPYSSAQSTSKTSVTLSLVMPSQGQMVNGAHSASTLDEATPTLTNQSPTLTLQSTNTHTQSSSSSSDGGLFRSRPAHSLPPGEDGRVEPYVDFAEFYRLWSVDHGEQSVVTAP

With “p38 MAP kinase (total p38) (from UniProt Q16539 1-360) (enzyme)” as the substance, how does the fold increase of p38 in TAB1 immunoprecipitates with A-769662 over DMSO control read?
The fold increase of p38 in TAB1 immunoprecipitates with A-769662 over DMSO control was 2.5 to 3 fold.
